Data on 125 sequences can be found in the supplement of paper PMC9112550, “Optimization of the antimicrobial peptide Bac7 by deep mutational scanning” (BMC Biology, 2022).

This data set deals with Escherichia coli TOP10. Kind of data set: shrunken log2 fold change of peptide-encoding DNA abundance (4.5 h post-induction vs induction); higher = less antimicrobial activity (less host growth inhibition). To be noted: time post-induction: 4.5 h; library: site-saturation at positions 5, 18, 19, 20.
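Further: peptides expressed intracellularly from a pBAD plasmid library in pooled LB shake-flask culture, induced with 0.3% L-arabinose, DNA abundance read by NGS, three biological replicates, DESeq2 with apeglm shrinkage.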

For RRIRIRPPRLPRPRPRPYWRPRP, the “shrunken log2 fold change” value was -0.478.
The result for RRIRLRPPRLPRPRPRPRTFPRP reads -0.0808; that for RRIRDRPPRLPRPRPRPWFNPRP, -0.161.
In the case of RRIRKRPPRLPRPRPRPHPDPRP it was -0.0313; in that of RRIRCRPPRLPRPRPRPCLLPRP, -1.45.
The result for RRIRVRPPRLPRPRPRPQWCPRP reads 0.0102.
Consider RRIRKRPPRLPRPRPRPGGAPRP, for which the “shrunken log2 fold change” value was 0.729.
As to RRIRIRPPRLPRPRPRPHPLPRP, the “shrunken log2 fold change” value was -0.516.
The result for RRIRHRPPRLPRPRPRPQVRPRP reads -0.134; that for RRIRPRPPRLPRPRPRPGDFPRP, -0.0208; that for RRIRGRPPRLPRPRPRPILTPRP, 0.351.
RRIRGRPPRLPRPRPRPAFCPRP: the “shrunken log2 fold change” value was 0.731.
In the case of RRIRPRPPRLPRPRPRPRPWPRP it was 0.212.
In the case of RRIRKRPPRLPRPRPRPWSLPRP it was 0.0414; in that of RRIRRRPPRLPRPRPRPTMAPRP, 0.392; in that of RRIRHRPPRLPRPRPRPLLVPRP, -0.167.
The result for RRIRLRPPRLPRPRPRPDKWPRP reads 0.0575; that for RRIRDRPPRLPRPRPRPCGYPRP, 0.0572; that for RRIRDRPPRLPRPRPRPRQCPRP, -0.0309.
On to RRIRMRPPRLPRPRPRPAWWPRP, for which the “shrunken log2 fold change” value stood at 0.879.
The result for RRIRWRPPRLPRPRPRPNCAPRP reads 0.255; that for RRIRHRPPRLPRPRPRPNRHPRP, -0.281; that for RRIRVRPPRLPRPRPRPWTIPRP, -0.281.
The result for RRIRNRPPRLPRPRPRPGMMPRP reads -0.247; that for RRIRWRPPRLPRPRPRPEGWPRP, 1.39; that for RRIRTRPPRLPRPRPRPCGAPRP, 0.0999.
Take RRIRIRPPRLPRPRPRPGKRPRP: the “shrunken log2 fold change” value is 0.0192.
In the case of RRIRYRPPRLPRPRPRPTWMPRP it was 0.0576.
The result for RRIRIRPPRLPRPRPRPAKWPRP reads 0.109.
On to RRIRTRPPRLPRPRPRPKFCPRP, for which the “shrunken log2 fold change” value was determined as 0.365.
The result for RRIRPRPPRLPRPRPRPNCIPRP reads -0.134; that for RRIRRRPPRLPRPRPRPPEHPRP, 0.14.
With RRIRMRPPRLPRPRPRPGMGPRP, the “shrunken log2 fold change” value was found to be 0.902.
The result for RRIRVRPPRLPRPRPRPLQGPRP reads -0.292; that for RRIRVRPPRLPRPRPRPNEPPRP, 0.097; that for RRIRNRPPRLPRPRPRPEVFPRP, 0.0362.
In the case of RRIRTRPPRLPRPRPRPWVMPRP it was -0.125.
The result for RRIRWRPPRLPRPRPRPENNPRP reads -0.0683; that for RRIRSRPPRLPRPRPRPKMFPRP, -0.00685; that for RRIRGRPPRLPRPRPRPTHDPRP, 1.72.
RRIRTRPPRLPRPRPRPRGDPRP: the “shrunken log2 fold change” value was 0.409.
In the case of RRIRQRPPRLPRPRPRPPIDPRP it was 0.00417; in that of RRIRYRPPRLPRPRPRPYAPPRP, -0.784.
As for RRIRTRPPRLPRPRPRPQCIPRP, the “shrunken log2 fold change” value was -0.247.
In the case of RRIRTRPPRLPRPRPRPYISPRP it was -0.382; in that of RRIRFRPPRLPRPRPRPSRIPRP, -0.119; in that of RRIRHRPPRLPRPRPRPAHVPRP, 0.128.
In the case of RRIRSRPPRLPRPRPRPAQWPRP it was 0.595; in that of RRIRNRPPRLPRPRPRPQSTPRP, -0.548.
Regarding RRIRLRPPRLPRPRPRPQDDPRP, the “shrunken log2 fold change” value was -0.224.
The result for RRIRKRPPRLPRPRPRPQLIPRP reads 0.0871; that for RRIRSRPPRLPRPRPRPFHRPRP, -0.154; that for RRIRTRPPRLPRPRPRPWDVPRP, -0.092.
In the case of RRIRMRPPRLPRPRPRPTLLPRP it was 0.2.
On to RRIRKRPPRLPRPRPRPEEPPRP, for which the “shrunken log2 fold change” value worked out at 3.09.
The result for RRIRCRPPRLPRPRPRPQLHPRP reads -0.213; that for RRIRFRPPRLPRPRPRPWYHPRP, -0.14.
The result for RRIRYRPPRLPRPRPRPQPMPRP reads -0.159.
In the case of RRIRKRPPRLPRPRPRPMGEPRP it was -0.0199; in that of RRIRRRPPRLPRPRPRPLAMPRP, -0.0111; in that of RRIRCRPPRLPRPRPRPMFLPRP, -0.847.
As to RRIRGRPPRLPRPRPRPNEKPRP, the “shrunken log2 fold change” value was determined as 0.0813.
In the case of RRIRYRPPRLPRPRPRPCIAPRP it was -0.148; in that of RRIRVRPPRLPRPRPRPSIFPRP, -0.606.
The result for RRIRMRPPRLPRPRPRPQTIPRP reads 0.414.
The result for RRIRGRPPRLPRPRPRPDWDPRP reads 0.596; that for RRIRHRPPRLPRPRPRPQRHPRP, 0.0629; that for RRIRFRPPRLPRPRPRPCCVPRP, -0.189.
For RRIRFRPPRLPRPRPRPWAAPRP, the “shrunken log2 fold change” value amounted to 0.385.
The result for RRIRDRPPRLPRPRPRPMLRPRP reads 0.0179; that for RRIRERPPRLPRPRPRPNTLPRP, -0.556; that for RRIRSRPPRLPRPRPRPITHPRP, -0.419.
The result for RRIRSRPPRLPRPRPRPGSGPRP reads 0.32.
The result for RRIRMRPPRLPRPRPRPPWWPRP reads 1.01.
Regarding RRIRWRPPRLPRPRPRPIRRPRP, the “shrunken log2 fold change” value was -0.00924.
The result for RRIRCRPPRLPRPRPRPNRIPRP reads -0.111; that for RRIRKRPPRLPRPRPRPWKMPRP, 0.0749.
Regarding RRIRLRPPRLPRPRPRPMEKPRP, the “shrunken log2 fold change” value turned out to be 0.0493.
In the case of RRIRARPPRLPRPRPRPNTNPRP it was -0.0214.
For the sequence RRIRARPPRLPRPRPRPHQMPRP, the “shrunken log2 fold change” value was -0.066.
In the case of RRIRFRPPRLPRPRPRPSPSPRP, the “shrunken log2 fold change” value was found to be 0.12.
On to RRIRARPPRLPRPRPRPAEVPRP, for which the “shrunken log2 fold change” value was 0.129.
In the case of RRIRIRPPRLPRPRPRPCEHPRP, the “shrunken log2 fold change” value was -0.00165.
As for RRIRLRPPRLPRPRPRPCHYPRP, the “shrunken log2 fold change” value is -0.0212.
RRIRQRPPRLPRPRPRPLNPPRP: the “shrunken log2 fold change” value was -0.303.
The result for RRIRVRPPRLPRPRPRPFACPRP reads -0.395.
Take RRIRRRPPRLPRPRPRPYMIPRP: the “shrunken log2 fold change” value is -0.263.
The result for RRIRRRPPRLPRPRPRPRIYPRP reads -0.0573; that for RRIRARPPRLPRPRPRPTNCPRP, 0.269.
In the case of RRIRKRPPRLPRPRPRPIQLPRP it was -0.0418.
In the case of RRIRDRPPRLPRPRPRPDKHPRP it was -0.0761; in that of RRIRRRPPRLPRPRPRPAWRPRP, 0.504.
For RRIRDRPPRLPRPRPRPVWPPRP, the “shrunken log2 fold change” value was found to be 0.225.
In the case of RRIRWRPPRLPRPRPRPPWYPRP it was -0.0946.
In the case of RRIRLRPPRLPRPRPRPPQMPRP it was 0.304; in that of RRIRDRPPRLPRPRPRPLCMPRP, 0.43.
Turning to RRIRSRPPRLPRPRPRPLNCPRP, the “shrunken log2 fold change” value was -0.374.
The result for RRIRWRPPRLPRPRPRPWVHPRP reads -0.597; that for RRIRHRPPRLPRPRPRPPYTPRP, -0.266.
The result for RRIRGRPPRLPRPRPRPYTHPRP reads -0.426; that for RRIRSRPPRLPRPRPRPEARPRP, 0.292.
The result for RRIRDRPPRLPRPRPRPCFYPRP reads -0.167; that for RRIRDRPPRLPRPRPRPCRTPRP, -0.173.
For the sequence RRIRLRPPRLPRPRPRPGQKPRP, the “shrunken log2 fold change” value was -0.00989.
Take RRIRMRPPRLPRPRPRPQAVPRP: the “shrunken log2 fold change” value is 0.442.
In the case of RRIRYRPPRLPRPRPRPWPKPRP it was 0.203; in that of RRIRERPPRLPRPRPRPEVHPRP, 0.116; in that of RRIRTRPPRLPRPRPRPFWTPRP, -0.258.
In the case of RRIRRRPPRLPRPRPRPDPVPRP, the “shrunken log2 fold change” value is 0.0811.
In the case of RRIRARPPRLPRPRPRPVVKPRP it was 0.298.
The result for RRIRPRPPRLPRPRPRPPDTPRP reads 0.148.
The result for RRIRIRPPRLPRPRPRPYNPPRP reads -0.276; that for RRIRPRPPRLPRPRPRPQGYPRP, -0.0854.
As for RRIRHRPPRLPRPRPRPPVYPRP, the “shrunken log2 fold change” value worked out at 0.118.
In the case of RRIRLRPPRLPRPRPRPFEIPRP it was 0.0206; in that of RRIRARPPRLPRPRPRPMHFPRP, 0.122.
The result for RRIRNRPPRLPRPRPRPCITPRP reads -0.049.
In the case of RRIRVRPPRLPRPRPRPPKRPRP it was -0.193.
As for RRIRVRPPRLPRPRPRPGPPPRP, the “shrunken log2 fold change” value was 0.564.
In the case of RRIRVRPPRLPRPRPRPIRPPRP it was -0.0154; in that of RRIRRRPPRLPRPRPRPEESPRP, 1.5.
The result for RRIRQRPPRLPRPRPRPYLDPRP reads -0.286; that for RRIRNRPPRLPRPRPRPMWFPRP, 0.0647.
In the case of RRIRPRPPRLPRPRPRPRDWPRP it was 0.531.
As to RRIRERPPRLPRPRPRPYASPRP, the “shrunken log2 fold change” value is -0.303.
